Test results: the nanobody polyreactivity screen of Harvey et al. (2022)

Assay: yeast display, Sf9 membrane polyspecificity reagent, FACS + sequencing; frameworks hold sequencing errors
In short: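 A nanobody's polyreactivity label depends on the gate it was sorted from. Yeast display cells were stained with 10% biotinylated, detergent-solubilized Sf9 membrane reagent for 1 hour at 4 °C, enriched on streptavidin microbeads and sorted by FACS. The low and high (top ~1%) gates were set on anti-HA fluorescence for expression and streptavidin fluorescence for reagent binding.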

Sequence | polyreactivity (PSR sort gate)
QVQLVESGGGLVQAGGSLRLSCAPSGNIFAINALGWYRQAPGKESELVATITGGGGSTSYADSVKGRFTISRDNAKNTVYLQMNSLKPEDTAVYSCAADTVYYYGEWYDYWNYVWFDYWGQGTQVTVSS | low polyreactivity
QVQLVESGGGLVQAGGSLRLSCAPSGRIFAYNTMGGYRQAPGKERELVAVSTSGGSTNYADSVKRRFTISRDNAKNTVYLQMNSLKTEDTAVYYCATLETTGVNYWGQGTQVTVSS | high polyreactivity
QVQLVESGGGLVQAGGSLRLSCAPSGRIFKRNTMGWYRQAPGKVRELVAAITGSSGSTYYADSVKGRFTISRDNAKNNVLLQMNSLKPEDTAVYYCNTVRSVYQYWPYNYWGQGTQETVSS | high polyreactivity
QVQLVESGGGLVQAGGSLRLSCAPSGRIFSWNAMGWYRQAPGKERELVAAISVRGGSTYADSVKGRFTISRDNAKNTVYLQMNSLKPEDTAVYYCAKTYYPYRLGEGQYEYDYWGQGTQVTVSS | low polyreactivity
QVQLVESGGGLVQAGGSLRLSCAPSGRIFSYNTMGWYRQAPGKERELVAAISRGGSTYYADSVKGRFTISRDNAKNTVYLQMNSLKPEDTAVYYCNALLPPGSRKYNYWGQGTQVTVSS | high polyreactivity
QVQLVESGGGLVQAGGSLRLSCAPSGRIFTRYARGWYRQAPGKERELVAVITRSGGSTYYADSVKGRFTISRDNAKNTVYLQMNSLKPEDTAVYYCAAKYYGEMYYWGQGTHVTVSS | low polyreactivity
QVQLVESGGGLVQAGGSLRLSCAPSGRIFWRYAMGWYRQAPGKERELVAGITYSGGRTYYADSVKGRFTISRDNAKNSVFLQMNSLKPEDSAVYYCAARGYFDALVDYWGQGTQVTVSS | low polyreactivity
QVQLVESGGGLVQAGGSLRLSCAPSGRIFYAYAMGWYRHAPGKERELVAAITIGGNTNYADSVKGRFTSSRDNAKNTVYLQMNSLKPEVTAVYDCNARTYYYPWRGYHVVGSNDLGYWGQGTQVTVST | low polyreactivity
QVQLVESGGGLVQAGGSLRLSCAPSGRTFKVNDMGWYRQAPGKERELVAAINYRGGRTYYADSVKGRFTISRDNAKNNFYLQMNSLKPEDTAFYYCNAQSGVVADDYWGQGTQVTVSS | high polyreactivity
QVQLVESGGGLVQAGGSLRLSCAPSGRTFRYYTMGWYRQAPGKERELVAAISSAGRTYYADSVKGRFTISRDNAKNTVYLQMNSLKPEDTAVYYCAAYGGDKIRMDYWGQGTQVTVSS | high polyreactivity
QVQLVESGGGLVQAGGSLRLSCAPSGRTFVHYTMGWYRQAPGKERELVAAISGTGTSTYYADSVKGRFTISRDNAKNTVYLQMNSLKPEDTAVYYCARRYWYPDAFYRYDYWGQGTQVTVSS | low polyreactivity
QVQLVESGGGLVQAGGSLRLSCAPSGRTFWAYAMGWYRQAPGKERELVAAITTSGGSTNYADSVKGRFTISRDNAKNTVYLQMNSLKPEDTAVYYCNADPTYHVVNGVGYWGQGTQVTESS | low polyreactivity
QVQLVESGGGLVQAGGSLRLSCAPSGRTFYPNVMGWSRQAPGKERELVAAITSGGSTYYADSVKGRFTISRDNAKNTVYLQMNSLKPEDTAVYYCAVAYAGGGSRKYDYWGQGTQVTVSS | low polyreactivity
QVQLVESGGGLVQAGGSLRLSCAPSGRTLFTNAMGWYRQAPGKERELVAAISIGGTTYYADSVKGRFTISRDNAKNTVYLQMNSLKPEDTAVYYCNKVRRFHSEYGYWGQGTQVTVSS | high polyreactivity
QVQLVESGGGLVQAGGSLRLSCAPSGRTLRGYAMGWYRQAPGKEREFVAAISSRGGSTYYADSVKGRFTISRDNAKNTVYLQMHSLKPEDTAVYYCAALRPLFATSHARDYWGQGTQVTVSS | high polyreactivity
QVQLVESGGGLVQAGGSLRLSCAPSGRTLYNYAMGWTRQAPGKERELVASITWSGGSTYYADSVKGRFTISRDNAKNTVYLQMTSLKPEDTAVYYCAAESSPGTFVRYGYRRYYYWGQGTQVTVSS | low polyreactivity
QVQLVESGGGLVQAGGSLRLSCAPSGRTYTVYTMGWYRQAPGKERELVAVISTGGRTYYADSVKGRFTISRDNAKNTVYLQMNSLKPEDTAVYYCAAKFTREYYWGQGTEVTVSS | high polyreactivity
QVQLVESGGGLVQAGGSLRLSCAPSGSIFHYNAMGWYRQAPGKEREFVAVISKSSGSTFYADSVKGRFTISRDNAKNTVYLLMISLKPEDTAVYYCNRVTKRYPNIGNYWGQGTQVSVSS | high polyreactivity
QVQLVESGGGLVQAGGSLRLSCAPSGSIFPDYAMGWYRHAPGKQRELVAAIRSGSRTYYADSVKGRFTISRDNAKITVYLQMNSLNPEDTAVYYCATTYGTPRYDYWGQGTQVTVSS | high polyreactivity
QVQLVESGGGLVQAGGSLRLSCAPSGSIFPYYAMGWYRQAPGKERELVAVITTSGGRTYYADSVKGRFTISRDNAKNTVYLQMNSLKPEDTAVYYCATDVRQGSGWRYYYWGQGTQVTVSS | high polyreactivity
QVQLVESGGGLVQAGGSLRLSCAPSGSIFRVYAMGWYRQAPGKERELVAAITIGTSTNYADSVKGRFTISRDNAKNTVYLQMNSLKPEDTAVYYCAAEWSYNLDSIASSPTSYDYWGQGTQVTVSS | low polyreactivity
QVQLVESGGGLVQAGGSLRLSCAPSGSISQTYAMGWYRQAPGKERELVAAISSSGASTYYADSVKGRFTISRDNAKNTVYLQMNSLKPEDTAVYYCAALGRYRYIYNYWGQGTQVTVSS | high polyreactivity

Sequence | polyreactivity (PSR sort gate)
QVQLVESGGGLVQAGGSLRLSCAPSGSTFNYNAMVWYRQAPGKERELVARISWRGGSTYYADSVKGRFTISRDNAKNTVYLQMNSLKPEATAVYYCAATRYWYGSTYDYWGQGTQVTVSS | high polyreactivity
QVQLVESGGGLVQAGGSLRLSCAPSGSTFPQYAMGWYRQAPGKERELVADISSGVSTNYADSVKGRFTISRDNAKNTVYLLMNSLKPEDTAVYYCAAQAYVEGVYRYDYWGQGTQVTVSS | low polyreactivity
QVQLVESGGGLVQAGGSLRLSCAPSGSTFPWNAMGWYRQAPGKERELVAAIRTGGGRTYYADSVKGRFTISRDNAKNTVYLQMNSLKPEDTAVYYCNAYFTYWSQLYYWGQGTQVTVSS | high polyreactivity
QVQLVESGGGLVQAGGSLRLSCAPSGSTFRFYAMGWYRQAPGKERELVAVISSAGSTNYADSVKGRFTISRDNAQNTVYLQMNSLKPEDTAVYYCAAYRRYSIYNYWGQGTQVTVSS | high polyreactivity
QVQLVESGGGLVQAGGSLRLSCAPSGSTFTSYAMGWYRQAPGKDRELVAAITYGSGTTYADSVKGRFTISRDNAKNTVYLQMNSLKPEDTAVYYCAADFYYPVLGHGFPTYEYDYWGQGTQVTVSS | low polyreactivity
QVQLVESGGGLVQAGGSLRLSCAPSGSTFTSYAMGWYRQAPGKERELVAAITYGSGTTYADSVKGRFTISRDNAKNTVYLQMNSLKPEDTAVYYCAADFYYPVLGHGFPTYEYDYWGQGTQVTVSS | low polyreactivity
QVQLVESGGGLVQAGGSLRLSCAPSGSTFVRYAMGWYRQAPGKESELVAAISKSGVSTYYADSVKGRFTISRDNAKNTVNLQMNSLKPEDTAVYYCAAYARGVRRYRRYDYWGPGTQVTVSS | high polyreactivity
QVQLVESGGGLVQAGGSLRLSCAPSGSTFVYYAMGWYRPAPGKERELVAAINRSGTRTYYADSVKGRFSISRDNAKNTVYLQMNSLKPEDTAVYYCDKAVQGKYGYWGQGTQVTVSS | high polyreactivity
QVQLVESGGGLVQAGGSLRLSCAPSGSTFYKNAMGWYRQAPWKERELVAGISRRGGRTYYADSVKGRFSISRDNAKNTVYLQMNSLKPEDTAVYYCNARLLSGPGYDYWGQGTQVTVSS | low polyreactivity
QVQLVESGGGLVQAGGSLRLSCAPSGSTFYYYAMGWYRQAPGKERELVAAITYRGGTYYADSVKGRFTISRDNAKNTVYLQMNSLKPEDTAVYYCAAPLSRIMDYWGQGTQVTVSS | high polyreactivity
QVQLVESGGGLVQAGGSLRLSCAPSGSTLNVYAMGWYRQAPGKERELVAAIRWSGDTYYADSVKGRFTISRDNAKNTVYLQMNSLKPEDTAVYYCAADPGTTYWQRFDYWGQGTQVTVSS | low polyreactivity
QVQLVESGGGLVQAGGSLRLSCAPSGYIFPFNALGGYRQAPGKERELVAAINNGGRTYYADSVKGRFTISRDNAKNTVFLQMHSLKPEDTAVDSCAAGSKSDMDWGQGTQVTVSS | low polyreactivity
QVQLVESGGGLVQAGGSLRLSCAPSGYTFARYAMGWSRQAPGKDRELVAAITSSGGSTYYADSVKGRFTSSRDNAKNTVYLQMNSLKPEDTAVYYCNARGFQKSDPRGYLILNYWGQGTQVTVSS | high polyreactivity
QVQLVESGGGLVQAGGSLRLSCAPSRRIFRSYAMGWYSQAPGKERELVAAISSRGSTYYADSVKGRFTISRDNEKNTVFLQMNSLKPEDTAVYYCAVHLWVYPLKREFYWGQGTQVTVSS | high polyreactivity
QVQLVESGGGLVQAGGSLRLSCASSGFAYSYYAMGWYRQAPGKEREFVASIDWSGGSTYYADSVKGRITISRDNAMNTVYLQMNSLKPEATAVYYCAAELDYFPGYDSWGQGTQVTVSS | low polyreactivity
QVQLVESGGGLVQAGGSLRLSCASSGFIFPWNAMGWYRQAPGKERELVADISTGTSRTYADSVKGRFTISRDNAKNTVYFQMNSLKPEDTAVYYFNKAHNYKYDWGQGTQVTVSS | low polyreactivity
QVQLVESGGGLVQAGGSLRLSCASSGFIFYYNAMGWYRQAPVKERELVAAISYGGGSTYYADSVKGRFTISRDNAKNTVYLQMNSLKPEDTAVYYCSARVYWWNASLAGNYWGQGTQVTVSW | low polyreactivity
QVQLVESGGGLVQAGGSLRLSCASSGFSFDYYVMGWYRQAPGKEMELVASNRSRGASTHYADSVKGRFTISRDNAKNTVYLQMNRLKTEDTAVYYCAKGGGYRRAARSFGGGDYWGQGTHVTVSS | low polyreactivity
QVQLVESGGGLVQAGGSLRLSCASSGFTFARYAMGWYRPAPGKEREFVAAIDKSGGSTYYADSVTGRFTISRDNAKNTVYLQMNSLKPEDTAVYYCAAGFGRVFSSIYGYWGQGTQVTVSS | high polyreactivity
QVQLVESGGGLVQAGGSLRLSCASSGFTFGWYDMGWYRQAPGKERELVASISWSGSSTYYADSVKGRFTISRDNAKNTVYLQLNSLKPEDTAVYYCNAVSVDYVNWYWYDYWGQGTQVTVSS | high polyreactivity
QVQLVESGGGLVQAGGSLRLSCASSGFTFKFNAMGWYRPAPGKERELVAAISQSGVNTYYADSVKGRFTISRDNAKNTVFLLMNSLKPEDTAVYYCAADFSAYGYDYWGQGTQVTVSS | low polyreactivity
